77 sequences from the supplement of paper PMC7877785 can be followed below.

± gives the uncertainty stated by the source.

This series is described as follows: self-splicing fitness, log relative to wild type (ln ratio); higher = more splicing; Tetrahymena group I intron in knt gene, E. coli kanamycin selection, DiMSum; sequences stand for … in CUCUCU…GGAGGGAAAAGUUAUCAGGCAUGCACCUGGUAGCUAGUCUUUAAACCAAUAGAUUGCAUCGGUUUAAAAGGCAAGACCGUCAAAUUGCGGGAAAGGGGUCAACAGCCGUUCAGUACCAAGUCUCAGGGGAAACUUUGAGAUGGCCUUGCAAAGGGUAUGGUAAUAAGCUGACGGACAUGGUCCUAACCACGCAGCCAAGUCCUAAGUCAACAGAUCUUCUGUUGAUAUGGAUGCAGUUCACAGACUAAAUGUCGGUCGGGGAAGAUGUAUUCUUCUCAUAAGAUAUAGUCGGACCUCUCCUUAAUGGGAGCUAGCGGAUGAAGUGAUGCAACACUGGAGCCGCUGGGAACUAAUUUGUAUGCGAAAGUAUAUUGAUUAGUUUUGGAGUACUCGUGGUCG
A digest of the protocol: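 A randomised library covering all eight P1ex-region intron nucleotides was built with the intron in the knt kanamycin-resistance gene on pET-22b(+) and held in E. coli BL21(DE3). Cells were grown overnight at 37°C or 30°C on LB agar, with or without 25 μg/mL kanamycin, plus 100 μg/mL carbenicillin, 50 μM IPTG and 0.2% rhamnose, and pooled colonies were amplicon-sequenced on an Illumina HiSeq 2500. DiMSum fitness is the error-weighted combination of wild-type-normalised replicate fold changes, kanamycin versus none.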

Consider AUGGAGCAAUAUUACGGUGC, for which the “self-splicing fitness (ln)” value (30 °C) was -2.99 ± 0.25.
Take AUGGAGCAAUAUUACGUCCG: the “self-splicing fitness (ln)” value (30 °C) was -1.29 ± 0.12 and the “self-splicing fitness (ln)” value (37 °C) is -1.06 ± 0.13.
The like results for AUGGAGCAAUAUUACGUCUC were, in that order, -1.83 ± 0.28 and -1.89 ± 0.37.
On to AUGGAGCAAUAUUACGUGCC, for which the “self-splicing fitness (ln)” value reads like this: (30 °C) -2.59 ± 0.25; (37 °C) -2.25 ± 0.45.
On the same counts, the results for AUGGAGCAAUAUUACGUGUU are -3.69 ± 0.15 and -3.73 ± 0.24.
For AUGUAGCAAUAUUACGACAG, the “self-splicing fitness (ln)” value is 0.106 ± 0.081 (30 °C) and 0.358 ± 0.095 (37 °C).
The like results for AUGUAGCAAUAUUACGACAU were, in that order, -1.39 ± 0.014 and -0.557 ± 0.033.
The like results for AUGUAGCAAUAUUACGACGC were, in that order, -0.952 ± 0.12 and 0.119 ± 0.082.
On the same counts, the results for AUGUAGCAAUAUUACGAUUC are -2.52 ± 0.31 and -1.12 ± 0.33.
Take AUGUAGCAAUAUUACGCCCC: the “self-splicing fitness (ln)” value reads like this: (30 °C) -0.236 ± 0.22; (37 °C) -0.186 ± 0.3.
On the same counts, the results for AUGUAGCAAUAUUACGCUGA are -1.93 ± 0.15 and -1.29 ± 0.18.
As for AUGUAGCAAUAUUACGGAAU, the “self-splicing fitness (ln)” value (30 °C) is -1.46 ± 0.082 and the “self-splicing fitness (ln)” value (37 °C) is -0.789 ± 0.11.
For AUGUAGCAAUAUUACGGAGA, for the setting “37 °C”, the “self-splicing fitness (ln)” value was -2.06 ± 0.38.
Take AUGUAGCAAUAUUACGGAGC: the “self-splicing fitness (ln)” value (30 °C) is -4.16 ± 0.16 and the “self-splicing fitness (ln)” value (37 °C) was -3.02 ± 0.15.
On the same counts, the results for AUGUAGCAAUAUUACGGGGG are -3.28 ± 0.27 and -2.47 ± 0.37.
The like results for AUGUAGCAAUAUUACGGGUA were, in that order, -2.63 ± 0.24 and -0.0625 ± 0.14.
The like results for AUGUAGCAAUAUUACGGUAC were, in that order, -3.47 ± 0.38 and -1.89 ± 0.3.
Consider AUGUAGCAAUAUUACGGUUU, for which the “self-splicing fitness (ln)” value reads like this: (30 °C) -0.83 ± 0.085; (37 °C) -0.694 ± 0.1.
The like results for AUGUAGCAAUAUUACGUAAC were, in that order, -2.96 ± 0.17 and -1.54 ± 0.16.
On the same counts, the results for AUGUAGCAAUAUUACGUACG are -1.41 ± 0.1 and -0.212 ± 0.13.
The like results for AUGUAGCAAUAUUACGUGAA were, in that order, -2.3 ± 0.12 and -1.22 ± 0.14.
Regarding AUGUAGCAAUAUUACGUGCC, the “self-splicing fitness (ln)” value by setting is: (30 °C) -1.65 ± 0.22; (37 °C) -0.677 ± 0.2.
Regarding AUGUAGCAAUAUUACGUGGG, where the note is “37 °C”, the “self-splicing fitness (ln)” value was -3.13 ± 0.21.
Consider AUGUAGCAAUAUUACGUUCA, for which the “self-splicing fitness (ln)” value runs as follows: (30 °C) -0.72 ± 0.075; (37 °C) -0.276 ± 0.089.
The like results for AUGUAGCAAUAUUACGUUCG were, in that order, -0.997 ± 0.095 and -0.356 ± 0.12.
On the same counts, the results for AUUAAGCAAUAUUACGAAGC are -3.3 ± 0.25 and -2.52 ± 0.31.
As for AUUAAGCAAUAUUACGAAUG, the “self-splicing fitness (ln)” value was -2.82 ± 0.2 (30 °C) and -0.206 ± 0.2 (37 °C).
Regarding AUUAAGCAAUAUUACGACCC, the “self-splicing fitness (ln)” value (30 °C) was -1.2 ± 0.35.
For the sequence AUUAAGCAAUAUUACGAGGA, the “self-splicing fitness (ln)” value reads like this: (30 °C) -3.01 ± 0.28; (37 °C) -0.871 ± 0.19.
On the same counts, the results for AUUAAGCAAUAUUACGAUCA are -1.58 ± 0.17 and -0.409 ± 0.14.
On to AUUAAGCAAUAUUACGAUGU, for which the “self-splicing fitness (ln)” value (30 °C) was -0.608 ± 0.07 and the “self-splicing fitness (ln)” value (37 °C) is -0.0076 ± 0.084.
With AUUAAGCAAUAUUACGCCCG, the “self-splicing fitness (ln)” value runs as follows: (30 °C) -1.13 ± 0.22; (37 °C) 0.13 ± 0.33.
On the same counts, the results for AUUAAGCAAUAUUACGCGAA are -1.32 ± 0.11 and -0.882 ± 0.13.
For the sequence AUUAAGCAAUAUUACGCGGG, the “self-splicing fitness (ln)” value (30 °C) was -2.61 ± 0.22 and the “self-splicing fitness (ln)” value (37 °C) was -1.72 ± 0.17.
The like results for AUUAAGCAAUAUUACGCGUA were, in that order, -1.27 ± 0.14 and -0.834 ± 0.16.
The like results for AUUAAGCAAUAUUACGCUUC were, in that order, -3.05 ± 0.19 and -2.03 ± 0.18.
The like results for AUUAAGCAAUAUUACGCUUG were, in that order, -1.87 ± 0.11 and -0.856 ± 0.14.
As to AUUAAGCAAUAUUACGGAGC, the “self-splicing fitness (ln)” value is -2.62 ± 0.34 (30 °C) and -2.15 ± 0.31 (37 °C).
The like results for AUUAAGCAAUAUUACGGAUG were, in that order, -2.15 ± 0.14 and -2.02 ± 0.22.
AUUAAGCAAUAUUACGGCCG: the “self-splicing fitness (ln)” value by setting is: (30 °C) -0.768 ± 0.12; (37 °C) 0.0891 ± 0.15.
On the same counts, the results for AUUAAGCAAUAUUACGGGAU are -2.07 ± 0.15 and -0.652 ± 0.12.
In the case of AUUAAGCAAUAUUACGGGCG, the “self-splicing fitness (ln)” value (30 °C) was -0.789 ± 0.085 and the “self-splicing fitness (ln)” value (37 °C) is -0.228 ± 0.11.
Regarding AUUAAGCAAUAUUACGGGGA, the “self-splicing fitness (ln)” value by setting is: (30 °C) -3.62 ± 0.38; (37 °C) -1.41 ± 0.18.
On the same counts, the results for AUUAAGCAAUAUUACGGUUG are -3.08 ± 0.21 and -2.56 ± 0.24.
Turning to AUUAAGCAAUAUUACGUCAC, the “self-splicing fitness (ln)” value (37 °C) is -1.54 ± 0.4.
Consider AUUAAGCAAUAUUACGUCUA, for which the “self-splicing fitness (ln)” value is -0.611 ± 0.093 (30 °C) and 0.119 ± 0.091 (37 °C).
For AUUAAGCAAUAUUACGUGUG, the “self-splicing fitness (ln)” value is, setting by setting: (30 °C) -1.9 ± 0.089; (37 °C) -1.18 ± 0.1.
The like results for AUUAAGCAAUAUUACGUUCA were, in that order, -0.728 ± 0.092 and -0.399 ± 0.12.
The like results for AUUAAGCAAUAUUACGUUCG were, in that order, -0.91 ± 0.1 and -0.85 ± 0.14.
On the same counts, the results for AUUAAGCAAUAUUACGUUCU are -0.566 ± 0.064 and 0.034 ± 0.086.
For the sequence AUUCAGCAAUAUUACGAAAA, the “self-splicing fitness (ln)” value came to 0.178 ± 0.15 (30 °C) and 0.575 ± 0.17 (37 °C).
On the same counts, the results for AUUCAGCAAUAUUACGAAAG are -1.5 ± 0.11 and -1.03 ± 0.13.
The like results for AUUCAGCAAUAUUACGAACG were, in that order, -0.206 ± 0.085 and 0.232 ± 0.13.
Take AUUCAGCAAUAUUACGAGAC: where the note is “37 °C”, the “self-splicing fitness (ln)” value was -0.937 ± 0.18.
As for AUUCAGCAAUAUUACGAGCA, the “self-splicing fitness (ln)” value runs as follows: (30 °C) -0.457 ± 0.16; (37 °C) -0.783 ± 0.2.
The like results for AUUCAGCAAUAUUACGAGGG were, in that order, -2.42 ± 0.26 and -1.42 ± 0.34.
On the same counts, the results for AUUCAGCAAUAUUACGAGGU are -3.61 ± 0.17 and -1.72 ± 0.14.
On the same counts, the results for AUUCAGCAAUAUUACGAGUU are -2.76 ± 0.16 and -1.39 ± 0.13.
As for AUUCAGCAAUAUUACGCAGC, the “self-splicing fitness (ln)” value is -1.82 ± 0.38 (30 °C) and -1.15 ± 0.26 (37 °C).
The like results for AUUCAGCAAUAUUACGCCUG were, in that order, -1.95 ± 0.12 and -0.706 ± 0.19.
As to AUUCAGCAAUAUUACGCUGG, the “self-splicing fitness (ln)” value reads like this: (30 °C) -3.36 ± 0.17; (37 °C) -2.98 ± 0.26.
For the sequence AUUCAGCAAUAUUACGGAUA, the “self-splicing fitness (ln)” value (30 °C) is -1.72 ± 0.17 and the “self-splicing fitness (ln)” value (37 °C) was -1.17 ± 0.14.
The like results for AUUCAGCAAUAUUACGGAUC were, in that order, -3.24 ± 0.11 and -2.53 ± 0.18.
On the same counts, the results for AUUCAGCAAUAUUACGGCUC are -0.786 ± 0.081 and -0.0849 ± 0.1.
The like results for AUUCAGCAAUAUUACGGGUA were, in that order, -1.89 ± 0.11 and -1.31 ± 0.12.
Regarding AUUCAGCAAUAUUACGGUAU, the “self-splicing fitness (ln)” value was -0.934 ± 0.065 (30 °C) and -0.155 ± 0.073 (37 °C).
On the same counts, the results for AUUCAGCAAUAUUACGGUCG are -0.857 ± 0.085 and -0.679 ± 0.14.
The like results for AUUCAGCAAUAUUACGGUUA were, in that order, -0.544 ± 0.089 and -0.305 ± 0.08.
With AUUCAGCAAUAUUACGUGGA, the “self-splicing fitness (ln)” value is -2.72 ± 0.18 (30 °C) and -1.79 ± 0.12 (37 °C).
AUUCAGCAAUAUUACGUGGC: the “self-splicing fitness (ln)” value is, setting by setting: (30 °C) -3.76 ± 0.14; (37 °C) -2.21 ± 0.16.
On the same counts, the results for AUUCAGCAAUAUUACGUGUU are -2.68 ± 0.1 and -1.39 ± 0.089.
The like results for AUUCAGCAAUAUUACGUUAU were, in that order, -1.22 ± 0.079 and 0.0898 ± 0.095.
The like results for AUUGAGCAAUAUUACGAAUU were, in that order, -2.85 ± 0.23 and -1.71 ± 0.24.
In the case of AUUGAGCAAUAUUACGACAA, the “self-splicing fitness (ln)” value is -2.28 ± 0.29 (30 °C) and -1.31 ± 0.23 (37 °C).
On the same counts, the results for AUUGAGCAAUAUUACGACUC are -2.94 ± 0.29 and -1.59 ± 0.27.
On the same counts, the results for AUUGAGCAAUAUUACGAGUG are -2.69 ± 0.28 and -2.76 ± 0.38.
The like results for AUUGAGCAAUAUUACGAUAU were, in that order, -2.76 ± 0.18 and -1.04 ± 0.17.
